For one substance, Mean MFI results are on record in patent US20240002497A1.

Test [1] has as its target huNav1.7α + β1 (human Nav1.7α co-expressed with Navβ1) (human) (UniProt Q15858). Nature of the test: FACS, HEK293 cells; SD MFI 6. (In flow cytometry, cells or beads pass a laser one at a time.)
Test [2] concerns the target huNav1.7α (human Nav1.7 alpha subunit, expressed without β subunits) (human) (UniProt Q15858). As to the kind of experiment: FACS, HEK293 cells; SD MFI 2.
Test [3] has as its target huNav1.7α + β1-β2-β3 (human Nav1.7α co-expressed with Navβ1, Navβ2 and Navβ3) (human) (UniProt Q15858). Nature of the test: FACS, CHO Flp-In cells; SD MFI 12.

Regarding Negative control (Table 33), the Mean MFI was determined as 778 MFI in test [1], 723 MFI in test [2] and 566 MFI in test [3].
